Patent US10704056B2, “Constitutively active ABA receptor mutants” (The Regents of the University of California, priority 2011, dated 2020)

Key:
ABI2 = target: T1, ABI2 (Arabidopsis thaliana, UniProt O04719); experiment: In vitro PP2C phosphatase (pNPP) receptor activation assay with ABI2; assay type: biochemical; details: 600 nM PP2C, 0-4800 nM receptor, no ABA
T1 construct: Full length ABI1 and ABI2 were cloned into a modified pSUMO vector; made in house; host or cells: E. coli BL21 (DE3) pLysS
T1 sequence (O04719 1-423): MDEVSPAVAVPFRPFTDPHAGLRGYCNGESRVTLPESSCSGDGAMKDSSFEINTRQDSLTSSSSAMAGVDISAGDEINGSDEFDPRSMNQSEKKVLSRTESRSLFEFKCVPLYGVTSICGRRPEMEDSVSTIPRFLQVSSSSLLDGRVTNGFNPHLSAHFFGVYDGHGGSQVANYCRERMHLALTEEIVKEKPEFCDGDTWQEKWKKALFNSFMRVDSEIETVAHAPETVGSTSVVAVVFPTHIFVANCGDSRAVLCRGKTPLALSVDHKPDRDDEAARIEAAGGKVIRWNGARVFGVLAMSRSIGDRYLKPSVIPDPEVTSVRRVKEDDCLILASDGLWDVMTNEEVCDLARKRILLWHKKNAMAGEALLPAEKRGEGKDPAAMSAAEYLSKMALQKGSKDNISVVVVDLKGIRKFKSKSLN
Method: Full length ABI1 and ABI2 were cloned into a modified pSUMO vector (LifeSensors Inc, USA) vector yielding 6×His-SUMO fusion proteins; GST-HAB1 was expressed and purified as previously described (Park et al., 2009). Mutant receptors were cloned into pET28 yielding 6×His-fusion proteins. […]. The cultures were pre-incubated 2 hours at 30° C. and, for PP2C expression, media was supplemented with 4 mM MnCl2 one hour after inoculation. After pre-incubation, IPTG was added (1 mM) and cells were induced at 15° C. for 16 hours, after which they were collected by centrifugation, resuspended in 5 ml Buffer A (50 mM NaH2PO4, 300 mM NaCl) +10 mM imidazole, pH 8.0 and stored at −80° C. For purification, cells were thawed, sonicated on ice (60 seconds) and a cleared lysate was then applied a 1 ml-bed volume column of Ni-NTA (Qiagen, USA), washed with 20 column volumes of Buffer A+30 mM imidazole and bound protein eluted with 1 ml of Buffer A+250 mM imidazole. For receptors, the elutate was dialyzed against TBS and for PP2Cs, fusion proteins were desalted by passage over a Sephadex G50 column.
The purified receptors and phosphatases were then used in receptor assays where receptor activation is indicated by inhibition of phosphatase activity, as inferred from initial reaction velocities for PP2C-mediated hydrolysis of the synthetic phosphatase substrate pNPP in reactions containing 600 nM PP2C and either 0, 600, 1200, 2400 or 4800 nM receptor. The receptor assay buffer consisted of 33 mM Tris-OAc, pH 7.9, 66 mM KOAc, 0.1% BSA, 25 mM Mn(OAc)2, 0.1%13-ME and 50 mM pNPP. Immediately after mixing proteins and substrates, reactions were monitored for hydrolysis of pNPP at A405 at ˜2 minutes intervals using a Wallac plate reader. Reaction progressions were plotted, initial velocities calculated and converted to specific activities by comparison to a standard curve for 4-nitrophenol made in the same buffer system. PP2C activity values shown in figures are expressed as %-control phosphatase activity levels, as measured under identical reaction conditions in the absence of receptor protein. The average specific activity level of GST-HAB1, 6×His-SUMO-ABI1 and 6×His-SUMO-ABI2 utilized in our experiments was 4500 (GST-PP2C) or 2500 (SUMO-PP2C) μmol/min/mg, when assayed using the phosphatase substrate pNPP in the absence of PYR1 or other receptors.

Columbia seeds = experiment: Seed dormancy / germination assay of 35S-driven transgenic lines, stratified vs unstratified; assay type: in vivo, Arabidopsis; details: 35S-driven overexpression in wild-type Columbia background
Method: To investigate the effects of the PYL2^CA3 allele, we performed a number of physiological assays on wild-type and aba2-1 genotypes. Columbia (Col), 35S::PYL2, and 35S::PYL2^CA3 seed samples were divided into two portions; one portion was stratified on ⅓ MS plates for 6 days at 4° C. and the second portion was plated six days later ⅓ MS plates. Both samples were the transferred to room temperature (23° C.) and incubated in darkness. […] Each experiment was performed in triplicate and each point plotted represents the average of tests conducted using 40 to 70 seeds. […] Thus, overexpression of PYL2^CA3 activates the ABA-regulated seed dormancy pathway.
In order to assay dormancy of seeds for Columbia, 35S::GFP-PYL2, and 35S::GFP-PYL2^CA3 were divided into two portions and surface sterilized using chlorine gas (prepared in situ using bleach and HCl). One portion was stratified on ⅓ MS agar plates for 6 days at 4° C. in darkness and the second portion, which was maintained at room temperature, was seeded six days later on the ⅓ MS agar plates; both samples were transferred to a 23° C. light-tight growth chamber and germination scored at 24 hour periods. The homozygous 35S::GFP-PYL2 and 35S::GFP-[…] seeds used in these experiments were ˜5- and ˜6-months post-harvest respectively at the time of the experiment shown in FIG. 12.

B1: PYL2^CA3: PYL2 mutant (H65P, V87F, F165V); expressed in plants as 35S-driven GFP fusion (protein)
chain: HHHHHHMSSSPAVKGLTDEEQKTLEPVIKTYHQFEPDPTTCTSLITQRIHAPASVVWPLIRRFDNPERYKPFVKRCRLISGDGDVGSVREVTFISGLPASTSTERLEFVDDDHRVLSFRVVGGEHRLKNYKSVTSVNEFLNQDSGKVYTVVLESYTVDIPEGNTEEDTKMVVDTVVKLNLQKLGVAATSAPMHDDE
In the case of B1, the “constitutive receptor activity on ABI2 in the absence of ABA” value (ABI2) is reported as “active towards multiple PP2Cs” and the “seed hyperdormancy (stratification dependent germination)” value (Columbia seeds) is reported as “induces a state of hyperdormancy in seeds”.
